The record followed here is article PMC2970701 (DNA repair, 2010).

The target in this experiment is S. cerevisiae ubiquitin (S. cerevisiae, UniProt P0CG63 1-76). In words: NMR titration.
S. cerevisiae ubiquitin, sequence (P0CG63 1-76): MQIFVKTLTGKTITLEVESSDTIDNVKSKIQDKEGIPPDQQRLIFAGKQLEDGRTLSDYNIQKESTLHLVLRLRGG

B1: UBZ domain of S. cerevisiae polymerase η (domain or fragment)
chain: TTSSKADEKTPKLECCKYQVTFTDQKALQEHADYHLALKLSEGLNGAEESSKNLSFGEKRLLF
As for B1, the binding result is reported as “binds”.
